Data published in the nanobody polyreactivity screen of Harvey et al. (2022).

Test: yeast display, Sf9 membrane polyspecificity reagent, FACS + sequencing; frameworks hold sequencing errors
Summary of the method: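 Nanobodies came from a synthetic yeast display library in Saccharomyces cerevisiae BJ5465, induced with galactose for 36–48 hours and stained for 1 hour at 4 °C with 10% biotinylated, detergent-solubilized Sf9 membrane reagent. Cells were enriched on streptavidin microbeads and then FACS-sorted, with low and high (top ~1%) gates set on anti-HA fluorescence for expression and streptavidin fluorescence for reagent binding. Each polyreactivity label reflects the gate a clone came from. Genes were amplified by colony PCR, sequenced by MiSeq 2 × 250 and filtered by CDR length.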

## QVELVESGGGLVQAGVSLRLSCAASGIISRGYAMGWYRQAPGKERELVAAISRSGGTTYYADSVKGRFTISRDNAKTTVYLQMNSLKPEDTAVYYCAARSKYFGYWGQGTQVTVSS
  polyreactivity (PSR sort gate): high polyreactivity

## QVELVESGGGLVQPGGSLRLSCAASGRTFYLNAMGWYRQAPGKEREFVARITWSGGSTYYADSVKGRFTISRDNAKNTVYLQMNSLKPEDTAVYYCAARVRLYRGFTKYDYWGQGTQVTVSS
  polyreactivity (PSR sort gate): high polyreactivity

## QVHHEESGGGLFQAGGRLRLSCAASGYIFYDYSMGWYRQAPGKERELVAAISSGGSTNYADSVKGRFTISRDNAKNTVYLQMNSLIPEDTAVYYCASDDRSYATWKRDYDYWGQGTHVTVSS
  polyreactivity (PSR sort gate): low polyreactivity

## QVHHVESAGGLVQAGASLRLSSAASGSTIYRYAMGWYRQTPGKERELVARIDWSDGSTNYADSVKGRFTISRDNAKNTVYLQMNSLKPEDTGVYYCASDTYYDTYDGEYEYWGQGTQVTVSS
  polyreactivity (PSR sort gate): low polyreactivity

## QVHHVESGGGLVQAGGCLRLSCAASGFIVRENAMGWYRQAPGKERELVAAISKSGGRTYYADSVKGRFTISRDNAKNTVYLQMNSLKPEDTAVFYCAAYPSYTIHPAGDYWGQGTQVTVSS
  polyreactivity (PSR sort gate): high polyreactivity

## QVHHVESGGGLVQAGGILRLSCAASGFTIFKYAMGWSRQKPGKERELVATISIDGITNYADSVKGRFTISRDNAKNTVYLQMNILKPEDTAVYYCHALSLYQQLGYWGQGTQVTVSS
  polyreactivity (PSR sort gate): low polyreactivity

## QVHHVESGGGLVQAGGSLRLSCAASGGTFYYNAMGWYRQAPGKERELVAAIDGSGGTTYYADSVKGRFTISRDNAKNTVYLQMNSLKPEDTAVYYCAAAGSPSVYGYGYWGQGTQVTVSS
  polyreactivity (PSR sort gate): low polyreactivity

## QVHHVESGGGLVQAGGSLRLSCAASGSTIDEYAMGWYRQAPGKERELVAAIDWSTGSTYYADSVKGRFTISRDNAKNTVYLQMNSLKPEDTAVYYCAADSGYGPYYYWGQGTQVTVSS
  polyreactivity (PSR sort gate): high polyreactivity

## QVHHVESGGVLVKAGGSLRLSCAASGRTIYAYAMGWYRQAPGQESELVAAITSGASTYYADSVKGRFTISRDNAKNTVYLQMNSLKPEDTGVYYCAKRVRYYKPGYDYWGLGTQVTVSS
  polyreactivity (PSR sort gate): low polyreactivity

## QVHIVESGGGLVQAAGSLRLSCAASGSTLAIYDMGWYRQAPGKERELVAAISGGGSTYADSVKGRFTISPDNAKNTVYLHMNSLKTEDTAVYYFNADGWGDLFWSNFRFDYWVQGTQVTVSS
  polyreactivity (PSR sort gate): low polyreactivity

## QVHIVESGGGLVQAGGRLRLSCADSGTTFSYYTMGWYRQSPGKERELVAAISTSGGSTYYADSVKGRFTISRDNAKNTVYLQMNSLKPEDTAVYYCDARYGRYYKYNYWGQGTQVTVSS
  polyreactivity (PSR sort gate): high polyreactivity

## QVHIVESGGGLVQAGGSLRLSCAASGLIFYLYTRGWSRQATGKERELVAAISRSGTITYYADSVKGRFTISRDNAKNTVYLQMNSLKPEDTAVYYCAATYTYIIGTRYDYWGQGTQVTVSS
  polyreactivity (PSR sort gate): high polyreactivity

## QVHLEESGAGLVQAGGSLRISCAASGFIFDYYAMGWYRQAPGKERELVATITSRGGSTYYADSVKGRFTISRDNAKNTVSLQMNRLKPDYNGVYYCAAVSHPGRKYYYWGQGTQVTVSS
  polyreactivity (PSR sort gate): high polyreactivity

## QVHLEESGGGLVQAGGSLRLSCAASGFTFGPYAMGWYRQAPGKERELDATIRSGDSTNYADSVKGRFTISRDNAKNTVYLQMNSLKPEDTAVYYCARDARASARRKRYDYWGQGTQVTVSS
  polyreactivity (PSR sort gate): low polyreactivity

## QVHLEESGGGLVQAGRSLRLTCAASGRTFLWYAMGSYRQAPGKETDLVAAIRRSGGGTYYADSVKGRFTISRDNAKNSVYLQMNRLKPEDSGFFYCNSDYRGYQRGVISDGFYYWGLGTQVTVSS
  polyreactivity (PSR sort gate): low polyreactivity

## QVHLGQSGGGLVQAGGSLRLSCAASAITFRGNAMGWYRQAPGKERDLVAVITKGGVSTYYADSVKGRFTISRDNAKNTVYLQMNSLKPEVTAVYYCAKYWSWRSVKDYYWGLGTQVTVSS
  polyreactivity (PSR sort gate): high polyreactivity

## QVHLLESGGGLVQAGGSLRLSCAASGRTFIRNAMGWYRQAPGKERELVASIRWSGGSTYYADSVKGRFTISRDNAKNTVYLQMNSLKPEDTAVYYCARRKQSFGSWPPSEPVADDYWGQGTQVTVSS
  polyreactivity (PSR sort gate): low polyreactivity
